The source of these data is US20240409645A1 (DUALYX, published 2024).

The target of experiment [1] is T1, human IL-2 receptor (IL-2Rα/IL-2Rβ/γc) (human, UniProt P01589 22-272; P14784 27-551; P31785 23-369).
T1 sequence 1: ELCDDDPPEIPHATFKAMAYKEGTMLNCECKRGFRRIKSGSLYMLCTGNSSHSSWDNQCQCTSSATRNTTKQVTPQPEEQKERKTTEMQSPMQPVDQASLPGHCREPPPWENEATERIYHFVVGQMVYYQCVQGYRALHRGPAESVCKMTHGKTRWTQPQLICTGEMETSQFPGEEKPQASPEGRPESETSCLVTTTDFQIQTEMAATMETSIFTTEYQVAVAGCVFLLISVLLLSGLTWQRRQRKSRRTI
T1 sequence 2: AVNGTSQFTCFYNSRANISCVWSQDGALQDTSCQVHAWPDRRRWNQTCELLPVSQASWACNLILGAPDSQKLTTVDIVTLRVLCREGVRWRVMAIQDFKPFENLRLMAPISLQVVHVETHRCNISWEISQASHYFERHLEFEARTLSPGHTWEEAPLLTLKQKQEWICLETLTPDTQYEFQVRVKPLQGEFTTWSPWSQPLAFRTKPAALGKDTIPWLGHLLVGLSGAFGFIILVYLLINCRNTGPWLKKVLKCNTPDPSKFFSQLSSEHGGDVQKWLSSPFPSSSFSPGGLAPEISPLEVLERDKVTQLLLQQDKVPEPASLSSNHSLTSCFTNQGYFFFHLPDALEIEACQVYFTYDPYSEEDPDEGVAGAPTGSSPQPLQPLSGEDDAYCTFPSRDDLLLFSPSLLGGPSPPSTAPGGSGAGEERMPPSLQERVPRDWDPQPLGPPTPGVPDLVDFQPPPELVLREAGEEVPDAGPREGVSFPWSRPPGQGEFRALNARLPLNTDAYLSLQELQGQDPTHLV
T1 sequence 3: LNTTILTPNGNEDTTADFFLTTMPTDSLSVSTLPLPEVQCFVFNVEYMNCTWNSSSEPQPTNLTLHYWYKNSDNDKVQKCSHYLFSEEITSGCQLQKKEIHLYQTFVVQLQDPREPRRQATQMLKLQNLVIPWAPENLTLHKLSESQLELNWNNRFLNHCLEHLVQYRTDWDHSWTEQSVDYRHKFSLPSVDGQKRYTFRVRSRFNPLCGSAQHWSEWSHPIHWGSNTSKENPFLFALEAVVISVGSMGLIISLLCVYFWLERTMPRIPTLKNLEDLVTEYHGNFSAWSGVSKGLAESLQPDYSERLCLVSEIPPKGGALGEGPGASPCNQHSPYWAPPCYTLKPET
As to the kind of experiment: cell-based or functional assay.

In experiment [2] the target is T1, human IL-2 receptor (IL-2Rα/IL-2Rβ/γc). As to the kind of experiment: cell-based or functional assay. The source holds these as a separate data set.

Like-named read-outs stand apart in the source and are kept apart here. A value given as a limit tells only on which side of the number the result lay.

B1: DC00050 (other)
chain 1: QVQLVESGGGLVQPGGSLRLSCATSGFTFRNNFMSWVRQAPGKGLEWVSTISYGGESTTYAESVKGRFTISRDNAKNTLYLQMNNLKPEDTAVYYCAKATSYDSIRSGSRGQGTQVTVSSGGGGSGGGGSGGGGSQVQLVESGGGLVQPGGSLRLSCATSGFTFRNNFMSWVRQAPGKGLEWVSTISYGGESTTYAESVKGRFTISRDNAKNTLYLQMNNLKPEDTAVYYCAKATSYDSIRSGSRGQGTQVTVSSDKTHTCPPCPAPEAAGGPSVFLFPPKPKDTLMISRTPEVTCVVVDVSHEDPEVKFNWYVDGVEVHNAKTKPREEQYNSTYRVVSVLTVLHQDWLNGKEYKCKVSNKALGAPIEKTISKAKGQPREPQVYTLPPSRDELTKNQVSLTCLVKGFYPSDIAVEWESNGQPENNYKTTPPVLDSDGSFLLYSKLTVDKSRWQQGNVFSCSVMHEALHNHYTQKSLSLSPGK
chain 2: QVQLVESGGGLVQPGGSLRLSCATSGFTFRNNFMSWVRQAPGKGLEWVSTISYGGESTTYAESVKGRFTISRDNAKNTLYLQMNNLKPEDTAVYYCAKATSYDSIRSGSRGQGTQVTVSSGGGGSGGGGSGGGGSEVQLVESGGGLVQTGGSLRLSCAASGGTFSRDAMAWFRQVPGKEREFVALISWSGATTNYADSVKGRFAISRDNGKNTVYLQMNRLKPADTAIYYCAADRRPMGSRSYFEPTEYDDWGQGTQVTVSSGGGGSGGGGSGGGGSQVQLVESGGGLVQAGGSLTLSCAAPGRTFGTDVVGWFRQAPGKEREFVASISRSGDGIYYDDSVKGRFTISRNNAWNTVNLQMNSLKVEDTAVYYCAAGDGWSTYDYWGQGTQVTVSSGGGGSGGGGSGGGGSDKTHTCPPCPAPEAAGGPSVFLFPPKPKDTLMISRTPEVTCVVVDVSHEDPEVKFNWYVDGVEVHNAKTKPREEQYNSTYRVVSVLTVLHQDWLNGKEYKCKVSNKALGAPIEKTISKAKGQPREPQVYTLPPSRDELTKNQVSLTCLVKGFYPSDIAVEWESNGQPENNYKTTPPVLDSDGSFFLYSRLTVDKSRWQQGNVFSCSVMHEALHNHYTQKSLSLSPGK
B1: in experiment [1], the “EC50 (nM) pSTAT5, NK, human PBMCs” value came to 0.0326 nM; the “EC50 (nM) pSTAT5, Treg, human PBMCs” value is 0.00134 nM; the “Fold Max signal (% pSTAT5+) Treg/NK” value is 7 fold; the “Max signal (% pSTAT5+), NK” value turned out to be 8 % pSTAT5+. In experiment [1], the “Max signal (% pSTAT5+), Treg” value was 56 % pSTAT5+ and the “fold EC50 NK/Treg” value is 24 fold.

B2: DC00051 (other)
chain 1: QVQLVESGGGLVQPGGSLRLSCATSGFTFRNNFMSWVRQAPGKGLEWVSTISYGGESTTYAESVKGRFTISRDNAKNTLYLQMNNLKPEDTAVYYCAKATSYDSIRSGSRGQGTQVTVSSGGGGSGGGGSGGGGSQVQLVESGGGLVQPGGSLRLSCATSGFTFRNNFMSWVRQAPGKGLEWVSTISYGGESTTYAESVKGRFTISRDNAKNTLYLQMNNLKPEDTAVYYCAKATSYDSIRSGSRGQGTQVTVSSDKTHTCPPCPAPEAAGGPSVFLFPPKPKDTLMISRTPEVTCVVVDVSHEDPEVKFNWYVDGVEVHNAKTKPREEQYNSTYRVVSVLTVLHQDWLNGKEYKCKVSNKALGAPIEKTISKAKGQPREPQVYTLPPSRDELTKNQVSLTCLVKGFYPSDIAVEWESNGQPENNYKTTPPVLDSDGSFLLYSKLTVDKSRWQQGNVFSCSVMHEALHNHYTQKSLSLSPGK
chain 2: QVQLVESGGGLVQAGGSLTLSCAAPGRTFGTDVVGWFRQAPGKEREFVASISRSGDGIYYDDSVKGRFTISRNNAWNTVNLQMNSLKVEDTAVYYCAAGDGWSTYDYWGQGTQVTVSSGGGGSGGGGSGGGGSEVQLVESGGGLVQTGGSLRLSCAASGGTFSRDAMAWFRQVPGKEREFVALISWSGATTNYADSVKGRFAISRDNGKNTVYLQMNRLKPADTAIYYCAADRRPMGSRSYFEPTEYDDWGQGTQVTVSSGGGGSGGGGSGGGGSQVQLVESGGGLVQPGGSLRLSCATSGFTFRNNFMSWVRQAPGKGLEWVSTISYGGESTTYAESVKGRFTISRDNAKNTLYLQMNNLKPEDTAVYYCAKATSYDSIRSGSRGQGTQVTVSSDKTHTCPPCPAPEAAGGPSVFLFPPKPKDTLMISRTPEVTCVVVDVSHEDPEVKFNWYVDGVEVHNAKTKPREEQYNSTYRVVSVLTVLHQDWLNGKEYKCKVSNKALGAPIEKTISKAKGQPREPQVYTLPPSRDELTKNQVSLTCLVKGFYPSDIAVEWESNGQPENNYKTTPPVLDSDGSFFLYSRLTVDKSRWQQGNVFSCSVMHEALHNHYTQKSLSLSPGK
As to B2, in experiment [1], the “EC50 (nM) pSTAT5, NK, human PBMCs” value is 0.191 nM; the “EC50 (nM) pSTAT5, Treg, human PBMCs” value is under 0.1 pM; the “Fold Max signal (% pSTAT5+) Treg/NK” value was determined as 3 fold; the “Max signal (% pSTAT5+), NK” value came to 33 % pSTAT5+. Also, in experiment [1], the “Max signal (% pSTAT5+), Treg” value worked out at 96 % pSTAT5+ and the “fold EC50 NK/Treg” value is over 1910 fold.

B3: DC00052 (other)
chain 1: QVQLVESGGGLVQPGGSLRLSCATSGFTFRNNFMSWVRQAPGKGLEWVSTISYGGESTTYAESVKGRFTISRDNAKNTLYLQMNNLKPEDTAVYYCAKATSYDSIRSGSRGQGTQVTVSSGGGGSGGGGSGGGGSQVQLVESGGGLVQPGGSLRLSCATSGFTFRNNFMSWVRQAPGKGLEWVSTISYGGESTTYAESVKGRFTISRDNAKNTLYLQMNNLKPEDTAVYYCAKATSYDSIRSGSRGQGTQVTVSSDKTHTCPPCPAPEAAGGPSVFLFPPKPKDTLMISRTPEVTCVVVDVSHEDPEVKFNWYVDGVEVHNAKTKPREEQYNSTYRVVSVLTVLHQDWLNGKEYKCKVSNKALGAPIEKTISKAKGQPREPQVYTLPPSRDELTKNQVSLTCLVKGFYPSDIAVEWESNGQPENNYKTTPPVLDSDGSFLLYSKLTVDKSRWQQGNVFSCSVMHEALHNHYTQKSLSLSPGK
chain 2: QVQLVESGGGLVQAGGSLTLSCAAPGRTFGTDVVGWFRQAPGKEREFVASISRSGDGIYYDDSVKGRFTISRNNAWNTVNLQMNSLKVEDTAVYYCAAGDGWSTYDYWGQGTQVTVSSGGGGSGGGGSGGGGSQVQLVESGGGLVQPGGSLRLSCATSGFTFRNNFMSWVRQAPGKGLEWVSTISYGGESTTYAESVKGRFTISRDNAKNTLYLQMNNLKPEDTAVYYCAKATSYDSIRSGSRGQGTQVTVSSGGGGSGGGGSGGGGSEVQLVESGGGLVQTGGSLRLSCAASGGTFSRDAMAWFRQVPGKEREFVALISWSGATTNYADSVKGRFAISRDNGKNTVYLQMNRLKPADTAIYYCAADRRPMGSRSYFEPTEYDDWGQGTQVTVSSGGGGSGGGGSGGGGSDKTHTCPPCPAPEAAGGPSVFLFPPKPKDTLMISRTPEVTCVVVDVSHEDPEVKFNWYVDGVEVHNAKTKPREEQYNSTYRVVSVLTVLHQDWLNGKEYKCKVSNKALGAPIEKTISKAKGQPREPQVYTLPPSRDELTKNQVSLTCLVKGFYPSDIAVEWESNGQPENNYKTTPPVLDSDGSFFLYSRLTVDKSRWQQGNVFSCSVMHEALHNHYTQKSLSLSPGK
With B3, in experiment [1], the “EC50 (nM) pSTAT5, NK, human PBMCs” value is 0.0812 nM; the “EC50 (nM) pSTAT5, Treg, human PBMCs” value worked out at 0.00403 nM; the “Fold Max signal (% pSTAT5+) Treg/NK” value is 8 fold; the “Max signal (% pSTAT5+), NK” value was 9 % pSTAT5+. Further, in experiment [1], the “Max signal (% pSTAT5+), Treg” value amounted to 79 % pSTAT5+ and the “fold EC50 NK/Treg” value was found to be 20 fold.

B4: DC00075 (other)
chain 1: QVQLVESGGGLVQAGGSLRLSCAASGIPFDNYAMGWFRQAPGKEREFVAARDLEGIITRYGDSVKGRFTISRGNAKNTVFLQMNSLKPEDTAVYYCAARDGGVVAGSRSSAQYNYWGQGTQVTVSSDKTHTCPPCPAPEAAGGPSVFLFPPKPKDTLMISRTPEVTCVVVDVSHEDPEVKFNWYVDGVEVHNAKTKPREEQYNSTYRVVSVLTVLHQDWLNGKEYKCKVSNKALGAPIEKTISKAKGQPREPQVYTLPPSRDELTKNQVSLTCLVKGFYPSDIAVEWESNGQPENNYKTTPPVLDSDGSFLLYSKLTVDKSRWQQGNVFSCSVMHEALHNHYTQKSLSLSPGK
chain 2: EVQLVESGGGLVQTGGSLRLSCAASGGTFSRDAMAWFRQVPGKEREFVALISWSGATTNYADSVKGRFAISRDNGKNTVYLQMNRLKPADTAIYYCAADRRPMGSRSYFEPTEYDDWGQGTQVTVSSGGGGSGGGGSGGGGSQVQLVESGGGLVQPGGSLRLSCATSGFTFRNNFMSWVRQAPGKGLEWVSTISYGGESTTYAESVKGRFTISRDNAKNTLYLQMNNLKPEDTAVYYCAKATSYDSIRSGSRGQGTQVTVSSGGGGSGGGGSGGGGSQVQLVESGGGLVQAGGSLTLSCAAPGRTFGTDVVGWFRQAPGKEREFVASISRSGDGIYYDDSVKGRFTISRNNAWNTVNLQMNSLKVEDTAVYYCAAGDGWSTYDYWGQGTQVTVSSGGGGSGGGGSGGGGSDKTHTCPPCPAPEAAGGPSVFLFPPKPKDTLMISRTPEVTCVVVDVSHEDPEVKFNWYVDGVEVHNAKTKPREEQYNSTYRVVSVLTVLHQDWLNGKEYKCKVSNKALGAPIEKTISKAKGQPREPQVYTLPPSRDELTKNQVSLTCLVKGFYPSDIAVEWESNGQPENNYKTTPPVLDSDGSFFLYSRLTVDKSRWQQGNVFSCSVMHEALHNHYTQKSLSLSPGK
For the molecule B4, in experiment [2], the “EC50 (nM) pSTAT5, NK, human PBMCs” value was determined as 0.0032 nM; the “EC50 (nM) pSTAT5, Treg, human PBMCs” value was under 0.1 pM; the “Fold Max signal (% pSTAT5+) Treg/NK” value was determined as 12 fold; the “Max signal (% pSTAT5+), NK” value turned out to be 4.31 % pSTAT5+. In addition, in experiment [2], the “Max signal (% pSTAT5+), Treg” value came out at 53.1 % pSTAT5+ and the “fold EC50 NK/Treg” value was over 32 fold.
